Experimental data reported in the domain aggregation screens of Martell et al. (2025).

Experiment: soluble fraction after stress (log2 fold change); higher = more stays soluble; pooled small domains, quantitative proteomics
Conditions: stress: 50 degC
Method in brief: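 After stress at 50°C, the amount of each protein still soluble was measured. This was done on pooled custom libraries of small protein domains, using high-throughput quantitative proteomics. The figure given is a base-two log fold change and stands for aggregation propensity, with higher values meaning more protein stays in solution.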

Sequence | soluble fraction (log2)
HMGDSEMPVSEVVRLAKLDQISSIEISGTKLTIITNNLETYTSRIEENSTIIEILQRAGVDIGGLEIYPHG | -0.492
HMGVEVPRGDGSTVVRVRAGSSLADFAERIGADPAALITVLFRMGEMATVNQSLDEDTFKLLGAELGYDVQ | -0.691
HMDKIYVYTTRGQVIELPRGSTAIDFAYKIQTDIGNMIIAAIVNDKLVDANYVLHNKDRVKIVTS | -1.92
HMAAKADAVKKAIAAIGKVDASEDSKAKVEAARKAYAALTEDQKKLVEASQLKLLTEAEAAYQQAVEESKK | 0.0525
HMQQNDMTELRALAEKIISENDSVINDYKSGQGSALQFLIGQAMKETKGSANPQVISEIFTDLL | -0.225
HMWMQKILGNYIAARRKELGMTQANLAEKIHVTDKAVSRWERGVGLPDIENLEALAKALEVSLVSLMQGKT | -1.59
HMDDPYAGLRQRAYLFLRERDGAVPEEELIEHVFGSSGNPALWRPLLRQVLGADDRLDLRADGYWALRG | 0.118
HMELADNFAKLILTARESKGWTQAQLGQRMAETINVIKSAESGKPPADSVIRKFEMILGIELM | -1.96
HMGLAALLQSGPVAGTVLSHQPGGKVVIAFQGQAYPLNLKGRTLQPGQSVLARMAGEQISLEVI | -0.289
HMLILTWNYPYEYPMMMRSFLQEIGISRTFLAHIKSNGELLINGRHEIVLKTLQPGDVLTMVIPPSG | -1.71
HMSARRHAVKHLDANQLQTRVARMLSEFGLTAKVSKDPNSNALIIDGAPEAQRIAAQLITTIDKE | 0.091
HMHRNLSFEEEKEFLSAYTKQAEAGQIVDLNEMKAAYIEKVGHSIGGSQIYRMLERHGWRKVM | -0.312
HMARGTRTRAKLLAAAEVVFARYGYTEASIERITEEAGVGQGTFYLYFASKLEIFEELVDDLNR | -2.87
HMHMNFGEILQTKRKEKGFTQEELAHQLLVSSKTISNWETNKTTPDIDNVIRISQLFDISLNQLLLE | -0.379
HMAPTVPEVVRLEEGAARSAIEAAGLSVGSVEFRASSDPAGTVLATRPIAGRKVRPSSAVDLVLSDGRTP | 0.0905
HMDTGPSFATRRQEAFNALTQIAASNKEFMNVAGDVLWKVADFPEAQILAQRWRRIIPPNVLGEA | -0.193
HMDFRQALNTSADSDANKVALLESIVKGKYVSSTVNLLRRVITLRRGRSIDATLAAYSHYVSIR | 0.313
HMAADDGSARAEQLREMYSLISGLDKLDKAIILMWLDERSYDEIAEVTGFTRNNVATRLHRIKSRLARQSN | -0.783
HMADLTIDGVEYTKVSPTGTLTLEKVYTKNVTPADGQYYIQTGTKTVRVATDAEVAVIKAGGF | 0.0157
HMNMYTVTGRLVDQDGVPQANALVTIDSSSQQTRTSPQGFYLIKVFGTEPSTIKFLVDGYDPQIVNFTP | -0.21
HMGYTPGVVIQKSAILEEINQPDLALGMMLEAVKKDSQNLDILNRLVTLLIDQKKNEDAEIYNKKIIT | 0.0254
HMIEMAGGYRKGDRVELHSLKGAAEHNGKQGTVVGPQGERVKVLLDDSDSKTLALKVTNLTKLESA | 0.112
HMKLRSIQEQVQYLEKVDNQKAMQIILNMNDKASAVQILRNMKKEKAAAILAQMDPLQAAQILEDLA | 0.0608
HMGDEVAVTEILVKVGDTVEADQSLLTVEGDKASMEVPAPFAGVVKAIQVQLGDKVVTGSPIMLFEV | -0.00831
HMAEERVLSVPQSLAGERLDAALASLMPDYSRSRLASWIKEGLVTVDGAGAMPKQKLWGGETLRVQAQPT | 0.463

Sequence | soluble fraction (log2)
HMSRSLEIDVLVKALLEQDRRKFMLVTDGTADVTVRYNNALPSLFREGQGVVAEGLMDNGKFIATNVLAK | -0.631
HMSSLQFVTLTLMEGHAWVGREIQELLMPPQMRIALIRRGDSQVIPKGSTILESADELILSAIEYQG | -4.14
HMSEFSDRFRLLKDESGATLKELSEQLDITVPNLSYYMKGREPSYDILIKIADYFGVTTDWLIGRTDER | -0.547
HMVIQRQIPPLVTRMLDGLEQFIQLDMPFDLDTRLGNIEAVRANMDRSDVTSAEAYRQVLELYSIELQ | -0.2
HMRFQGKISDWNDEKGYGFVEPNGGGTRAFVHIKSFTDLPRRPINGDIIIYETTTDEKNRVQANNISFTR | 0.0181
HMSHGYVELKAENNDALISALENHTWFENIKLDPETNLVKAILTKPIEAENLNKMLFEKGIILSHLVKRK | -0.0853
HMQGLIGEQKAIQIALSRVPGAKPEHVRELKLDYDDGMQLYEGEIFYNFREYEFEINAVTGEVVGWEI | -1.6
HMASRTLSYSEFMSRVDSGDVTSVTLDGERIIMRTSNNQEFLSIKPEGEDISERLLAKNIEVRAEAQQ | -0.284
HMQVTDADFDQIRLAVLSQLKQNSLTVAELLKIIPFKEQKVMPVIRFLIDNRVLEHGTDMKLTVGNSVK | 0.0195
HMNSDQMKEHLDNLVDMAKKNDNTLIDTEIVNYFVGKPDIELNTDMMTKIFDYLDEHHVAVLS | -0.107
HMEMNDFETLRDMYLTGKIWNVGDIVEANGVRGKVIRKGTNYLSFVDEDNKVHKAWLYDIEE | -0.197
HMRAGEAVTGQVIGVKEDEIILSIAGSKSEGIITRSEFTNEPNVDLTTKVSVGDELEVKVLKVNDGEGMAS | -0.171
HMDPASYEARLSTLREQGAQQLDPVRFQYLATLAQRLPTQTPGVALILANKLRAGLSDYEQRLSEAGS | -0.0289
HMTGLRETIPAALDGERLDRVVALLGDVSRSRASAALEAERVTLDGEVVTLRSHRVREGEELTVAGFE | 0.405
HMAPADLSPEERVVLDALALEPVHVDALAAKLGRRSEELLTSLTLMEMRGLAVAHAGSRYSRATMT | 0.0694
HMKYSQAMIAQIIKHFHLPNNTVVTGEDVDAILLRSVDGGDGIYGGDVVSIWKYYKKQNDIQEIVT | -0.645
HMTITIGNSDGGYMKMGADGFEVRFSGSDGGNHYAKMYYNNDGWARLTLGSYGEEKARIDSDGMIQTR | -0.113
HMGRYVIQIASFSSKNNAIEAADKLGGFVVQSGRFYRVRTGPFATRGEADAALASARRVGYRDAFIDTS | -0.531
HMTKVIEFLVSDEEHGVRADKAFVSHNQKLSRSYFKKLILNGNLYINNKVNLDPSYKLIKGSTVRIILPE | -2.07
HMSSGNLESLLNKLHNEDYFVRLDAVKALGALGDPGAIDYLIEMLSENGIMRGWVANSLAALGEAQWKKII | -1.94
HMRSREGVRWIIRERIMEELQERHHMDDGELLEMIDRSIGEMGQEIFLPLKERIWLRGSLFDSFR | -3.1
HMIDLPDIDIDFAKRTGVLEHITHTPARLETGKQHNTGVYFTDIPRGVDGLATMDHKRAEQLGYFKLDML | 0.0268
HMSGRVPTADDIAVGMKVYVPRLGGTGTVVTEPVRDKVVIQVGSLRLHAEVAELLLPDEHGRIQVPR | 0.00655
HMKDSIQIPNVVGMTIKDAQSQYGKSFSIIEQNRTESTKPAGTILEQTPAGGDTVSKRDNIIIRVVVSLG | 0.132
HMNNYFPAYKGSATSIAPALKQMGVNNSYAYRSKIAAVNNITGYRGTPAQNTQMLNLLKQGRLIK | 0.362

Sequence | soluble fraction (log2)
HMKSDELTKRRRLQIIEAAERSFRKRGFHATTLREIAAEFGMSVGHIYNYFSGKDAILEALIHQKIDD | -0.82
HMSDTFTITTESGRIDKIITAHETTHTRSQVQKWLQDGLVTVNGNPVKANFKVTAGDVVTVTIPEVK | 0.104
HMMTDEEFLRIAGYMKQRYGIDLGQKKVIMNGRLENHIKSGGWSSFHAFMNDLEKDSSGKLEKELVNLLTT | 0.0314
HMGTLNLSQAYREWGMAEIEANRDYYGPVRFDDIAFQMSPAGQQLQARFVASYADRLHDAIEGEL | -0.304
HMAWIGEHTVTSEDTLSHIALKFYGHATPPYYKLIYEANKAIIGDNMNIIVPGQVLRIPALPEEL | -0.345
HMASDYYTTTANLNLRSGAGTTYGSLIIIEKGDTVKLLENVNDHWVKIQYDDKIGYVAMSYLLPIE | -0.484
HMGTITKRTNPSGAVVWRAQIRINKADMPTYSESKTFSKKSLATEWLKRREAEIEANPDLIL | -0.348
HMAKYEVVAKDIISRIKQNEFETTLKLPTEDEMIEYYQVSRNTVRSALKLLTSQGIIFSRQGSGFYIRQRS | -0.677
HMGTSGLTIPRFVSLASGTVHMRAGPGVRYPITWIYKRLGTPLMVMAEHEFWRKVRDAEGTEGWMHRSLLS | -0.0684
HMTAFAGLTPRERDLLELIAQGRDNAQIAATLGVSDKTVRNHITHIFAKLEVETRAQAIVLARNAGFGRA | -0.356
HMELTDRQKQIIEIVKKQQPISGEKIASILGFARATLRPDFSLLTMSGILQAKPKVGYLINEE | -0.152
HMGIDAIDNFVSKIIMKIEGLGESEVPTSTIGKFIMEGLQYLDTVAYVRYASVYKNFKEAKDFEQFVGSL | -0.179
HMELPVNSIRVPDVVGLSLREAMQAMTDAGVPWQSVQAKGVGFVSRQSPEAGTVTQLRRVRLELKLF | -2.58
HMGIMNFDTWLKSLPGTPTPTIAAKKSGLAAPTLLRHVERGYSTADNVIAIAKAYGVSPIDALVDNGML | -0.695
HMEEKNNIIVSYIEDKISELEKASMYVPNENKEKLIMAFKNRNEDIDVIKTRIDTIFNNSVAAYKENME | 0.21
HMDGLDFIINENGKIANINEEGELLAKGENIMLGYYKDSISTNNTINNGWLHTGDIAKIDNDGFIYL | 0.0618
HMSNAIDDAVEKVISENLDLAKERGLQSMGPLMGLVMKELGGTADGKAVSEALRRKISEISD | 0.293
HMQMTKSEFLDALRRALNGNMAAASVDDNIRFYDSYFYTEETKGRSEAEILSELGDPRILARTLIDAAD | 0.0125
HMTTTTTYITNTDAVNIRQQATTSSTSLGKLAKNTILSVKKKSGDWYQITYKKQTAYIHASLVDKKTAKVT | -0.556
HMTMVLPDAARDKLKAIGLSIEHVEPSPVKDIFTVISREGVSYVSKDGDYIFTGSLFHVKGKDVVNTTEQA | 0.128
HMSPSRRENLTAAAKEYFVNTQIRHKTFGNGVIIKRSGNIAAIRFDNGTIKQIDLIAALQAKVLSIL | 0.168
HMKMNRELNQRQIKMLDYLSVNPKTTRKQYTKMMGISFMTSYRDIQELIDKAYIISKGQGRGTYYILAN | -0.569
HMNVVGAKGRIIKISSSEEKMAVAEIEGHGEWNIRTNSEIELFVGKSVEVIEMKGNYLLVNQI | -0.0624
HMSDKTSLTDDDKALINSMLPDYDKYPSVAKLQAVEIAKSSSKMATLLMLDERYNETVSEALE | 0.0209
HMPVTKSARQSRIGELIAREPVRSQSELAARLADDGIVVSQGTLSKDLLELGAVRVRTSSGELAYALL | -0.18
